T1: human Dll1 (human, UniProt O00548 18-723)
T1 construct: whole, on cells
T1 sequence (looked up): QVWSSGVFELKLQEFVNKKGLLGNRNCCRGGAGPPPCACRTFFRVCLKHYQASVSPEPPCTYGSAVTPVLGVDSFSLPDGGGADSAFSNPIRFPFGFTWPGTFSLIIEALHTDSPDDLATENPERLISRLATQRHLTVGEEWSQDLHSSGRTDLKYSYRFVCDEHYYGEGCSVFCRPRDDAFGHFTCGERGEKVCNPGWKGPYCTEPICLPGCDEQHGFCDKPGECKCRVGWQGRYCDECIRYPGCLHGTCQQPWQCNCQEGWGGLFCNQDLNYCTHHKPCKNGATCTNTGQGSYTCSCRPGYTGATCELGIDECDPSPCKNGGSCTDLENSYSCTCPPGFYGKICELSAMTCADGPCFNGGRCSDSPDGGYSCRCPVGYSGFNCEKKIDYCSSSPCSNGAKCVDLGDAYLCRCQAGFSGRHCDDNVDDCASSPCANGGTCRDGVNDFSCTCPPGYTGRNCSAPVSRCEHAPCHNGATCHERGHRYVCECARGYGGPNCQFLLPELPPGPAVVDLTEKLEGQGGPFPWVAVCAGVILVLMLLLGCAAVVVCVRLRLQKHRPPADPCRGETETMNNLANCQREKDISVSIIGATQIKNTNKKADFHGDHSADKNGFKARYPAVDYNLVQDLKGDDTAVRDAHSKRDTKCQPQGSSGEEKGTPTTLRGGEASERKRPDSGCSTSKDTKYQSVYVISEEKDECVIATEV


Key:
full length human DLL4 [1] = biological target: T2, full length human DLL4 (human, UniProt Q9NR61 27-685); assay: FMAT, hybridoma supernatant, 293T cells with human DLL4
T2 construct: whole, on cells; also called native DLL4 expressed in HEK293 cells
Method: (§1) Cells diluted in PBS containing 2% FBS were seeded at a density of 3000 expressing and 15000 mock transfected cells per well in 384 well plates (Corning Costar, catalog #3712). Immediately after plating, 15 or 20 μl/well of hybridoma supernatants and 10 μl/well of secondary antibody (Goat anti-human IgG Fc Cy5, final concentration 750 ng/ml) were added and plates incubated for 3 h at room temperature prior to reading the fluorescence on the FMAT 8200 instrument (Applied Biosystems). The binding of human Notch1/Fc chimera (R&D systems, catalog #3647-TK), diluted 1:2 from 2.86 μg/ml was used as a positive control for DLL4 and human Notch3/Fc chimera diluted from 10 μg/ml was used a positive control for binding to Jagged1. Results for 12 hybridoma supernatants showing binding of hybridoma supernatants to human/cynomolgus monkey DLL4 and human Jagged are shown in Table 3.

human Jagged1 [2] = biological target: T3, human Jagged1 (human, UniProt P78504 34-1218); assay: FMAT, hybridoma supernatant, 293T cells with human Jagged1
T3 construct: whole, on cells
Method: as §1

human Jagged1 [3] = biological target: T3, human Jagged1; assay: FACS, 5 µg/ml, 293T cells with human Jagged1 vs mock
Method: (§2) The ability of the purified antibodies to bind to human Jagged1 and Dll1 was determined by FACS analysis. […] Cells were resuspended in PBS containing 2% FCS and seeded at 50000 cells/well into V-bottomed plates. Anti-DLL4 antibodies diluted in PBS containing 2% FCS were added at a final concentration of 5 or 15 μg/ml and plates were incubated for 1 h at 4° C. […] Data was analyzed by comparing the shift in geometric mean fluorescence in the mock-transfected cells to that observed in the Jagged1- or Dll1-transfected cells and is shown in Tables 16 and 17.

[4] = biological target: DLL4 extracellular domain (R&D systems, catalog #1506-D4/CF) (UniProt Q9NR61 27-529, limits assumed); assay: cell-based or functional assay
human Dll1 [5] = biological target: T1, human Dll1; assay: FACS, 15 µg/ml, 293T cells with human Dll1
Method: as §2

human Dll1 [6] = biological target: T1, human Dll1; assay: FACS, 15 µg/ml, 293T cells with human Dll1 vs mock
Method: as §2

human Jagged1 [7] = biological target: T3, human Jagged1; assay: FACS, 5 µg/ml, 293T cells with human Jagged1
Method: as §2

full length human DLL4 [8] = biological target: T2, full length human DLL4; assay: FMAT competition, supernatant vs Alexa-647 human Notch1/Fc, 293T cells with human DLL4
Method: Transfected and untransfected 239T cells were reconstituted in PBS containing 2% FCS and 5000 transfected and 17500 non-transfected cells were plated in 20 μl into wells of a 384-well tissue culture plate (Corning Costar, catalog #3712). Subsequently, 20 μl of hybridoma supernatant was added and plates were incubated at 4° C. for 1 h, at which time 20 μl of Alexa-647 labeled human Notch1/Fc was added at a final concentration of 6.7 ng/ml. After a further 3 h incubation at 4° C., the amount of bound Notch1/Fc was determined by reading the fluorescence in each well using an FMAT 8200 instrument (Applied Biosystems). Results are expressed as % inhibitions with the minimum inhibition in the assay being determined by the effects of non-DLL4 binding supernatants prepared in a similar way as described in example 2, and the maximum inhibition being defined as the signal obtained in the presence of a saturating concentration of unlabeled Notch1/Fc. N.T.=not tested

full length human DLL4 [9] = biological target: T2, full length human DLL4; assay: FMAT competition, purified antibody vs Alexa-647 human Notch1/Fc, 293T cells with human DLL4
Method: To discriminate between the purified antibodies based upon their ability to prevent the interaction between full-length recombinant DLL4 and soluble Notch1/Fc, the following assays were performed. Transfected and untransfected 239T cells were reconstituted in PBS containing 2% FCS and 5000 transfected and 17500 non-transfected cells were plated in 30 μl into wells of a 384-well tissue culture plate (Corning Costar, catalog #3712). Subsequently, 30 μl of purified antibodies, serial diluted from 5 μg/ml hybridoma supernatant was added and plates were incubated at 4° C. for 1 h, at which time 20 μl of 100 ng/ml Alexa-647 labeled human Notch1/Fc was added. After a further 3 h incubation at 4° C., the amount of bound Notch1/Fc was determined by reading the fluorescence in each well using an FMAT 8200 instrument (Applied Biosystems).

T3 sequence (P78504 34-1218): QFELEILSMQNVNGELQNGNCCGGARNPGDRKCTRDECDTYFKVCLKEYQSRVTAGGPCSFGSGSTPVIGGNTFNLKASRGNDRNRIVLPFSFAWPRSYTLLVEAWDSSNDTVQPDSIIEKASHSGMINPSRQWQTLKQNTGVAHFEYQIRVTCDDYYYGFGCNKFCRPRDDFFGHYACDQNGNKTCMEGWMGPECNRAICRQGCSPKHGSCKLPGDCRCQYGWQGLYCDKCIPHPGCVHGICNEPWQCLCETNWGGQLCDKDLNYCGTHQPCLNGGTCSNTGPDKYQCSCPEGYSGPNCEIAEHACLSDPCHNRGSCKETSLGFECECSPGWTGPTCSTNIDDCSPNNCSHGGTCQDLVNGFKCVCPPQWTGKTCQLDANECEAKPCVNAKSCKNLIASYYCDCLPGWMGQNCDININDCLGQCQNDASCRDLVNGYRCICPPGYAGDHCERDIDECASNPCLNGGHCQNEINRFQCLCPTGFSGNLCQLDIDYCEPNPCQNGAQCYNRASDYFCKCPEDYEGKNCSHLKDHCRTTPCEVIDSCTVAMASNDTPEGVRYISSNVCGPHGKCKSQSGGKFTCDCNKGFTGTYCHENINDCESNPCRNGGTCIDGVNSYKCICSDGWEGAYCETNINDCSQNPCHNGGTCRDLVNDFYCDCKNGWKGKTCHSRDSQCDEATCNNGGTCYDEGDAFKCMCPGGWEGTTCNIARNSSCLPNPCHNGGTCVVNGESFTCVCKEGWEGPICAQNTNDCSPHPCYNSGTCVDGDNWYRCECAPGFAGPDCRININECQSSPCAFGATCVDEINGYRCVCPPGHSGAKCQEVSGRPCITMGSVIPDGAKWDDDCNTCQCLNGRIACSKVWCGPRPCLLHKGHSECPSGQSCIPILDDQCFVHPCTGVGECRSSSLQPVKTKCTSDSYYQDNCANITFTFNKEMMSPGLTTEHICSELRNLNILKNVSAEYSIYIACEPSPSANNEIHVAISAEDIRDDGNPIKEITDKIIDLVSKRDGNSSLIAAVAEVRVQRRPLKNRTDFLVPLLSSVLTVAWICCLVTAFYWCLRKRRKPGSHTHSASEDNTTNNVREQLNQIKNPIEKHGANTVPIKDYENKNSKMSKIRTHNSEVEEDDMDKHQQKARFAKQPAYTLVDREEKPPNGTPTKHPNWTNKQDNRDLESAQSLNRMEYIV
Chain of DLL4 extracellular domain (R&D systems, catalog #1506-D4/CF) (Q9NR61 27-529 limits assumed): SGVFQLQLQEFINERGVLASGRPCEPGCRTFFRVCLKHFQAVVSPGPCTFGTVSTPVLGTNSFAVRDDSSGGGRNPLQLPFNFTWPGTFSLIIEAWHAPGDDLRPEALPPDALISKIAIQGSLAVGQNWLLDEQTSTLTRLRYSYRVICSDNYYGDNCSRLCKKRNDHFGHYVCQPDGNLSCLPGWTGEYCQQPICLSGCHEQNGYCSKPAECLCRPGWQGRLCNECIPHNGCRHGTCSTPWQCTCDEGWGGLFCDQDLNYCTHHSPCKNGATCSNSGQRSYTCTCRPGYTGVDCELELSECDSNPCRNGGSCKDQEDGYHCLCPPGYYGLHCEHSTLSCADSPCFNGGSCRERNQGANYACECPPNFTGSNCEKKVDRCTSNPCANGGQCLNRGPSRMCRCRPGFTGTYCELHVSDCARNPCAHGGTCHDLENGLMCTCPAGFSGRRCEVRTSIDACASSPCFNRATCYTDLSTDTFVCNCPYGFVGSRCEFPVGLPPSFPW
T2 sequence (Q9NR61 27-685): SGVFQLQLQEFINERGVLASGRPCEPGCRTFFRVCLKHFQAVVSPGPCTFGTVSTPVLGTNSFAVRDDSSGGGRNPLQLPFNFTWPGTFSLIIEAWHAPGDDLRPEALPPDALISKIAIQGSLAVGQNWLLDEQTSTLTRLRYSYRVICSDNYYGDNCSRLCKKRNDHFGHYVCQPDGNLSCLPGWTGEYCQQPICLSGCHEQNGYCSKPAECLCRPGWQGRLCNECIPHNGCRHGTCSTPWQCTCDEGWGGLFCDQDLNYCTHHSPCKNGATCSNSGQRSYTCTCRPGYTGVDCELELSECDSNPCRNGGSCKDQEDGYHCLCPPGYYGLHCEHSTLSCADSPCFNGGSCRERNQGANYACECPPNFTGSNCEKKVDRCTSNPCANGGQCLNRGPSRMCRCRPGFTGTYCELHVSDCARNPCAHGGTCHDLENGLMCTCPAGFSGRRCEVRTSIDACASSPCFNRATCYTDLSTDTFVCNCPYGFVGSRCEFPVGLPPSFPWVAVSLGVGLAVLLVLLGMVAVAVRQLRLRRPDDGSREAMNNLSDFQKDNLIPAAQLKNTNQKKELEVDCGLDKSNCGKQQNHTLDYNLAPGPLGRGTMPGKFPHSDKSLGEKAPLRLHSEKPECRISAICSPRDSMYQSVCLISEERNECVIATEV

Row | Binder | Count (full length human DLL4 [1]) | FL1 (full length human DLL4 [1]) | FL1 x count (full length human DLL4 [1]) | Count (human Jagged1 [2]) | FL1 (human Jagged1 [2]) | FL1 x count (human Jagged1 [2]) | Jagged1/mock ratio (human Jagged1 [3]) | % inhibition 1 µg/ml, AVERAGE (HUVEC proliferation on coated DLL4) [4] [%] | % inhibition 1 µg/ml, N = 1 (HUVEC proliferation on coated DLL4) [4] [%] | % inhibition 1 µg/ml, N = 2 (HUVEC proliferation on coated DLL4) [4] [%] | % inhibition 10 µg/ml, AVERAGE (HUVEC proliferation on coated DLL4) [4] [%] | % inhibition 10 µg/ml, N = 1 (HUVEC proliferation on coated DLL4) [4] [%] | % inhibition 10 µg/ml, N = 2 (HUVEC proliferation on coated DLL4) [4] [%] | Dll1/293T X Geo mean (human Dll1 [5]) | Dll1/mock ratio (human Dll1 [6]) | Jagged1/293T X Geo mean (human Jagged1 [7]) | % inhibition n = 1 (full length human DLL4 [8]) [%] | % inhibition n = 2 (full length human DLL4 [8]) [%] | % inhibition n = 3 (full length human DLL4 [8]) [%] | Mean % inhibition (full length human DLL4 [8]) [%] | also measured
1 | 4B3 (antibody, IgG4, V domains shown, Fully human; also used where no isotype is printed) VH: QVQLVQSGAEVRKSGASVKVSCKASGYSFTTYDINWVRQATGQGLEWMGWMNPNSGYTDYAQKFQGRVTLTRNMSIDTAYMELSSLRSEDTAVYYCARAYYYDSSAYYLFDYWGQGTLVTVSS VL: DIQMTQSPSSLSASVGDRVTITCRASQGISNYLAWFQQKPGKAPKSLIYAASSLQSGVPSKFSGSGSGTDFTLTISSLQPEDFATYFCQQYISYPLTFGGGTKVEI | 206 | 11000 | 2.27e+06 | 2 | 4720 | 9450 | 1.04 | 31 | 20 | 41 | 44 | 38 | 49 | 30.6 | 1.17 | 18.7 | 106 | 145 | 147 | 133 | % inhibition at 0.020 nM (full length human DLL4 [9]): -1%; % inhibition at 0.070 nM (full length human DLL4 [9]): 5%; % inhibition at 0.21 nM (full length human DLL4 [9]): -3%; % inhibition at 0.62 nM (full length human DLL4 [9]): 20%; % inhibition at 1.9 nM (full length human DLL4 [9]): 40%; % inhibition at 5.6 nM (full length human DLL4 [9]): 89%; % inhibition at 16.7 nM (full length human DLL4 [9]): 117%; IC50 (full length human DLL4 [9]): 3.33 nM
2 | 3A7 (antibody, IgG4, V domains shown, Fully human; also used where no isotype is printed) VH: EVQVVESGGGLVQPGGSLRLSCEASGFTFSNYWMIWVRQAPGKGLEWVASIKEDGSEKYYVDSVKGRFTISRDNAKSSLYLQMNSLRAEDTAVYYCVRDWELRGHYYYHGMDVWGQGTTVTVSS VL: DIQMTQSPSSLSASVGDRVTITCRASLDIRNDLGWFLQKPGKAPKRLIYAASSLQSGVPSRFSGSGSGTEFTLTINSLQPEDFATYYCLQHRNYPFTFGPGTKVDFK | 166 | 9470 | 1.57e+06 | 1 | 1940 | 1940 | 1.1 | 65 | 50 | 80 | 90 | 74 | 106 | 36.8 | 1.06 | 16.4 | 105 | 120 | 142 | 122 | % inhibition at 0.020 nM (full length human DLL4 [9]): -1%; % inhibition at 0.070 nM (full length human DLL4 [9]): 7%; % inhibition at 0.21 nM (full length human DLL4 [9]): -1%; % inhibition at 0.62 nM (full length human DLL4 [9]): 19%; % inhibition at 1.9 nM (full length human DLL4 [9]): 39%; % inhibition at 5.6 nM (full length human DLL4 [9]): 82%; % inhibition at 16.7 nM (full length human DLL4 [9]): 104%; IC50 (full length human DLL4 [9]): 2.94 nM

Continued, in another order:

Row | Count (full length human DLL4 [1]) | FL1 (full length human DLL4 [1]) | FL1 x count (full length human DLL4 [1]) | Count (human Jagged1 [2]) | FL1 (human Jagged1 [2]) | FL1 x count (human Jagged1 [2]) | Jagged1/mock ratio (human Jagged1 [3]) | % inhibition 1 µg/ml, AVERAGE (HUVEC proliferation on coated DLL4) [4] [%] | % inhibition 1 µg/ml, N = 1 (HUVEC proliferation on coated DLL4) [4] [%] | % inhibition 1 µg/ml, N = 2 (HUVEC proliferation on coated DLL4) [4] [%] | % inhibition 10 µg/ml, AVERAGE (HUVEC proliferation on coated DLL4) [4] [%] | % inhibition 10 µg/ml, N = 1 (HUVEC proliferation on coated DLL4) [4] [%] | % inhibition 10 µg/ml, N = 2 (HUVEC proliferation on coated DLL4) [4] [%] | Dll1/293T X Geo mean (human Dll1 [5]) | Dll1/mock ratio (human Dll1 [6]) | Jagged1/293T X Geo mean (human Jagged1 [7]) | % inhibition n = 1 (full length human DLL4 [8]) [%] | % inhibition n = 2 (full length human DLL4 [8]) [%] | % inhibition n = 3 (full length human DLL4 [8]) [%] | Mean % inhibition (full length human DLL4 [8]) [%] | Binder | also measured
3 | 206 | 10400 | 2.14e+06 | 2 | 8020 | 16000 | 1.13 | 74 | 73 | 75 | 82 | 81 | 82 | 31.7 | 1.15 | 16.9 | 98 | 99 | 113 | 110 | 1E4 (antibody, IgG2, V domains shown, Fully human; also used where no isotype is printed) VH: QVQLVESGGGVVQPGRSLRLSCAASGFTFSSYGMHWVRQAPGKGLEWVAVTWYDGSNKYYADSVKGRFTISRDNSKNTLYLQMNSLRAEDTAVYYCARENCSSTSCYYTVTTDYYGMDVWGQGTTVTVSS VL: EIVLTQSPGTLSLSPGERATLSCRASQRVSSSYLTWYQQKPGQAPRLLIYGASIRATGIPDRFSGSGSGTDFTLTITRLEPEDFAVYFCQQCYTSPITFGQGTRLDIK | % inhibition at 0.020 nM (full length human DLL4 [9]): -7%; % inhibition at 0.070 nM (full length human DLL4 [9]): 24%; % inhibition at 0.21 nM (full length human DLL4 [9]): 21%; % inhibition at 0.62 nM (full length human DLL4 [9]): 46%; % inhibition at 1.9 nM (full length human DLL4 [9]): 91%; % inhibition at 5.6 nM (full length human DLL4 [9]): 129%; % inhibition at 16.7 nM (full length human DLL4 [9]): 120%; IC50 (full length human DLL4 [9]): 0.99 nM
4 | 196 | 10600 | 2.08e+06 | 23 | 3250 | 74800 | 1.01 | 45 | 43 | 46 | 72 | 73 | 71 | 35.3 | 1.09 | 16.8 | 105 | 71 | 146 | 107 | 1D4 (antibody, IgG4, V domains shown, Fully human XenoMouse antibody; also used where no isotype is printed) VH: QLQLQESGPGLVKPSETLSLTCTVSGGSISSSSYYWGWIRQPPGKGLEWIGSFYYSRSTYYNPSLKSRVTISVDTSKNQFSLKLSSVTAADTAVHYCARGSIAVPDAFDIWGQGTMVTVSS VL: SYELTQPPSVSVSPGQTASITCSGDKLGDKFACWYQQKPGHSPVLVVYQDNKRPSGIPERFSGSNSGNSATLTISGTQAMDEADYYCQAWDSNTAVFGGGTKLTVL | % inhibition at 0.020 nM (full length human DLL4 [9]): 7%; % inhibition at 0.070 nM (full length human DLL4 [9]): -2%; % inhibition at 0.21 nM (full length human DLL4 [9]): 5%; % inhibition at 0.62 nM (full length human DLL4 [9]): 13%; % inhibition at 1.9 nM (full length human DLL4 [9]): 58%; % inhibition at 5.6 nM (full length human DLL4 [9]): 124%; % inhibition at 16.7 nM (full length human DLL4 [9]): 123%; IC50 (full length human DLL4 [9]): 2 nM

Source: US20100196385A1 (AstraZeneca / MedImmune, published 2010)
